Read-outs that look alike come from different tables or passages of the source.

Assay in all cases: SPR
For orientation: SPR reads the build-up and loss of mass on a sensor chip optically.

Test [1] has as its target T1, monomeric hRNF43-His antigen (UniProt Q68DV7 24-197).
T1 chain: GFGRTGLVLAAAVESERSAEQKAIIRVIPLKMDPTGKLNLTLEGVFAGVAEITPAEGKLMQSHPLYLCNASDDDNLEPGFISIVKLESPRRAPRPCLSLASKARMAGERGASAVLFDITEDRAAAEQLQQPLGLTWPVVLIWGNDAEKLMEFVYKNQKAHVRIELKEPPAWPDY

The target in test [2] is T1, monomeric hRNF43-His antigen.
The target in test [3] is rSC37.39.
The target of test [4] is rSC37.67.
The target of test [5] is SC37.23.
The target in test [6] is rSC37.17.
For test [7], the target named is SC37.9.
The target in test [8] is SC37.78.
Test [9] addresses T1, monomeric hRNF43-His antigen.
For test [10] the target is unchanged.

B1: hSC37.39 (antibody, V domains shown)
VH: QVQLVQSGAEVKKPGASVKVSCKASGYTFTTYTIHWVRQAPGQGLEWMGYINPRSGYTEYNQKFQDRVTMTRDTSTSTVYMELSSLRSEDTAVYYCARSYEFWGQGTTVTVSS
VL: EIVMTQSPATLSVSPGERATLSCKASQNVGINVAWYQQKPGQAPRALIYSASYRYSGIPARFSGSGSGTEFTLTISSLQSEDFAVYYCHQYKTYPYTFGGGTKVEIKR
The Kd is the free concentration of one partner at which half of the binding sites on the other are occupied at equilibrium, for simple one-to-one binding. In the case of B1, in test [1], the Kd came out at 0.34 nM. In other words, the sub-nanomolar range.

B2: SC37.2 (antibody, V domains shown)
VH: EVNLVESGGGLVQPGGSLRLSCATSGFTFSDFDMEWVRQPPGKRLEWIAASRNKANDYTTQYSASVKGRFIVSRDTSQSIVYIQMNALRAEDTAIYYCARDRYDYALDYWGQGTSVTVSS
VL: DIVMSQSPSSLAVSVGEKVTMSCKSSQTLLYYSNQKNYLAWYQRKPGLSPKLLIYWASTRDSGVPDRFTGSGSGTDFTLTISSVKAEDLAVYYCQQYYNYPLTFGAGTKLELK
Regarding B2, the Kd in [2] is 220 nM.

B3: RNF43 (other)
chain: T1 chain
With B3, the Kd in test [3] was 1 nM; in [4], 5.4 nM; in [5], 23.7 nM; in [6], 9.3 nM; in test [7], 160 nM; in test [8], 10.8 nM.

B4: hSC37.2 (antibody, V domains shown)
VH: EVQLVESGGGLVQPGGSLRLSCAASGFTFSDFDMEWVRQAPGKGLEWVGASRNKANDYTTQYSASVKGRFTISRDTSKNSLYLQMNSLKTEDTAVYYCARDRYDYALDYWGQGTTVTVSS
VL: DIQMTQSPSSLSASVGDRVTITCKSSQTLLYYSNQKNYLAWYQQKPGKVPKLLIYWASTRDSGVPSRFSGSGSGTDFTLTISSLQPEDVATYYCQQYYNYPLTFGQGTKLEIKR
With B4, the affinity in test [2], expressed as Kd, was 120 nM. That is a sub-micromolar value.

B5: SC37.3 (antibody, V domains shown)
VH: QIQLVQSGPELKKPGETVKISCKASGYTFTNYGMNWVRQAPGKGLKWVGWINTNTGEPTYADDFKGRFAFSLETSASTAYLQISNLKNEDMSTYFCAGSHDYSFAYWGQGTLVTVSA
VL: QAVVTQESALTTSPGETVTFTCRSSTGAVTTSNYANWVQEKPDHLFTGLIGGTNNRAPGVPARFSGSLIGDKAALTITGAQTEDEAIYFCALWYSNHWVFGGGTKLTVL
B5 returned a Kd in [2] of 44 nM.

B6: hSC37.67 (antibody, V domains shown)
VH: QVQLVQSGAEVKKPGASVKVSCKASGYTFTRYWIEWVRQAPGQRLEWMGEILPGSGSTNYNEKFKGRVTITADTSASTAYMELSSLRSEDTAVYYCERRGAYWGQGTLVTVSS
VL: DIQMTQSPSSLSASVGDRVTITCKASEDIYNRLAWYQQKPGKAPKLLISGATSLETGVPSRFSGSGSGTDYTLTISSLQPEDFATYYCQQNWSTPPTFGGGTKVEIKR
B6 had a Kd in test [9] of 4.2 nM.

B7: SC37.39 (antibody, V domains shown)
VH: QVQLQQSAAELARPGASVKMSCKASGYTFTTYTIHWVKQRPGQGLKWIGYINPRSGYTEYNQKFQDKTTMTSDNSSSTAYIQLSSLTSEDSAVYYCARSYEFWGQGTTLTVSS
VL: DIVMTQSQKFMSTSGGDRVSVTCKASQNVGINVAWYQQKPGQSPKALIYSASYRYSGVPNRFTGSGSGTDFTLTISNVQSEDLGDYFCHQYKTYPYTFGGGTKLEIK
In the case of B7, binding in test [1] was put at a Kd of 1.1 nM.

B8: SC37.67 (antibody, V domains shown)
VH: QVQLQQSGAELMKPGASVKISCKATGYTFSRYWIEWVKQRPGHGLEWIGEILPGSGSTNYNEKFKGKATFTADTSSNTAYMQLTSLTSEDSAVYFCERRGAYWGQGTLVTVSA
VL: DIQMTQSSSSFSVSLGDRVTITCKASEDIYNRLAWYQQKPGNAPRLLISGATSLETGVPSRFSGSGSGKDYTLSITSLQTEDVATYHCQQNWSTPPTFGGGTKLEIK
Take B8: the Kd in [9] came out at 3.5 nM.

B9: hSC37.17 (antibody, V domains shown)
VH: QVQLVQSGAEVKKPGASVKVSCKASGFNIKDTYIHWVRQAPGQGLEWMGRIDPANGKANYDPKFQGRVTMTRDTSTSTVYMELSSLRSEDTAVYYCALGGGYYGMDYWGQGTLVTVSS
VL: DIVMTQSPDSLAVSLGERATINCRASESVDSYGNSFMHWYQQKPGQPPKLLIYLASNLESGVPDRFSGSGSGTDFTLTISSLQAEDVAVYYCQQNNEDPLTFGQGTKVEIKR
In turn, B9 showed a Kd in test [10] of 1.2 nM.

B10: SC37.17 (antibody, V domains shown)
VH: EVQLQQSGADLVKPGASVKLSCTGSGFNIKDTYIHWVRQRPEQGLEWIGRIDPANGKANYDPKFQGKATMTADTSSKTVYVQLSSLTSEDTAVYYCALGGGYYGMDYWGRGTSVTVSS
VL: NIVLTQSPASLAVSLGQRATISCRASESVDSYGNSFMHWYQQKPGQPPKLLIYLASNLESGVPARFSGSGSRTDFTLTIDPVEADDAATYYCQQNNEDPLTFGAGTKLELK
B10 returned a Kd in [10] of 9.3 nM.

Source of the values: patent US20170073430A1 (published 2017).
